Measured values as given in article PMC3627603 (Nucleic Acids Research, 2013).

T1: H6-Mcm10 full length (FL), recombinant (human, UniProt Q7L590-2 1-874)
T1 sequence (looked up): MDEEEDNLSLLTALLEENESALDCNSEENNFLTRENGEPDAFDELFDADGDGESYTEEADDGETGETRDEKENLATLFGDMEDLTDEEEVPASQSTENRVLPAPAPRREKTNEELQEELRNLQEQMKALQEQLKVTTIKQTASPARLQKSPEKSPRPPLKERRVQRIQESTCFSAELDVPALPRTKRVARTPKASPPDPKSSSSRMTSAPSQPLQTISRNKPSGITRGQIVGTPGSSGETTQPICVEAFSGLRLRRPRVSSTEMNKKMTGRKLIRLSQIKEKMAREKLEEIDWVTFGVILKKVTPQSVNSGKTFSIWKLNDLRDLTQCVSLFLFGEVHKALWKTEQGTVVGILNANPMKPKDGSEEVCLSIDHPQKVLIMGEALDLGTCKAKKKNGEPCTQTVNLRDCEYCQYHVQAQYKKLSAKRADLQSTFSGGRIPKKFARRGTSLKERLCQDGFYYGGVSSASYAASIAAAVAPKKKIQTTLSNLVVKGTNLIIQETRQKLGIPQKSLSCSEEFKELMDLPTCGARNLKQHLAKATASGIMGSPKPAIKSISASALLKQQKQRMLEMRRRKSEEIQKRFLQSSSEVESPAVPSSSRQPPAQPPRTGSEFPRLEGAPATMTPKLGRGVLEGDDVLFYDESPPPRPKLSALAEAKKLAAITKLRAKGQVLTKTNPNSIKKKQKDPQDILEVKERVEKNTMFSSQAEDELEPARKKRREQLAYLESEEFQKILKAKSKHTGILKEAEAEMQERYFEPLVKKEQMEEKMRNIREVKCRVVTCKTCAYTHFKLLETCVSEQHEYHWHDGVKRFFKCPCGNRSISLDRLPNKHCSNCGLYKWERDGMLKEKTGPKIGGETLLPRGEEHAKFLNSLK

B1: GST-SIRT1 (enzyme, human, UniProt Q96EB6 1-747, looked up)
chain: MADEAALALQPGGSPSAAGADREAASSPAGEPLRKRPRRDGPGLERSPGEPGGAAPEREVPAAARGCPGAAAAALWREAEAEAAAAGGEQEAQATAAAGEGDNGPGLQGPSREPPLADNLYDEDDDDEGEEEEEAAAAAIGYRDNLLFGDEIITNGFHSCESDEEDRASHASSSDWTPRPRIGPYTFVQQHLMIGTDPRTILKDLLPETIPPPELDDMTLWQIVINILSEPPKRKKRKDINTIEDAVKLLQECKKIIVLTGAGVSVSCGIPDFRSRDGIYARLAVDFPDLPDPQAMFDIEYFRKDPRPFFKFAKEIYPGQFQPSLCHKFIALSDKEGKLLRNYTQNIDTLEQVAGIQRIIQCHGSFATASCLICKYKVDCEAVRGDIFNQVVPRCPRCPADEPLAIMKPEIVFFGENLPEQFHRAMKYDKDEVDLLIVIGSSLKVRPVALIPSSIPHEVPQILINREPLPHLHFDVELLGDCDVIINELCHRLGGEYAKLCCNPVKLSEITEKPPRTQKELAYLSELPPTPLHVSEDSSSPERTSPPDSSVIVTLLDQAAKSNDDLDVSESKGCMEEKPQEVQTSRNVESIAEQMENPDLKNVGSSTGEKNERTSVAGTVRKCWPNRVAKEQISRRLDGNQYLFLPPNRYIFHGAEVYSDSEDDVLSSSSCGSNSDSGTCQSPSLEEPMEDESEIEEFYNGLEDEPDVPERAGGAGFGTDGDDQEAINEAISVKQEVTDMNYPSNKS

Tests used:
[1] = target: T1, H6-Mcm10 full length (FL), recombinant; assay: pull-down
GST-SIRT1 = target: B1; assay: pull-down

| binding result [1] | binding result (GST-SIRT1) | Binder |
| --- | --- | --- |
| binds | – | B1 |
| – | binds | His-tagged Mcm10 C-terminal domain (CTD, aa 630-874) (domain or fragment, human, UniProt Q7L590-2 630-874, looked up) GVLEGDDVLFYDESPPPRPKLSALAEAKKLAAITKLRAKGQVLTKTNPNSIKKKQKDPQDILEVKERVEKNTMFSSQAEDELEPARKKRREQLAYLESEEFQKILKAKSKHTGILKEAEAEMQERYFEPLVKKEQMEEKMRNIREVKCRVVTCKTCAYTHFKLLETCVSEQHEYHWHDGVKRFFKCPCGNRSISLDRLPNKHCSNCGLYKWERDGMLKEKTGPKIGGETLLPRGEEHAKFLNSLK |
